Data taken from publication PMC12443421 (2025).

Assays:
[1] = molecular target: wild-type 185 bp nucleosome (with symmetric flanking DNA) (human, UniProt P04908 1-130; P62807 1-126; Q71DI3 1-136; P62805 1-103)
[2] = molecular target: wild-type unmodified 147 bp nucleosome (nucleosome core particle) (human, UniProt P04908 1-130; P62807 1-126; Q71DI3 1-136; P62805 1-103)

B1: KDM5A^CAT (lysine demethylase 5A, residues 1-801) (domain or fragment)
chain: MAGVGPGGYAAEFVPPPECPVFEPSWEEFTDPLSFIGRIRPLAEKTGICKIRPPKDWQPPFACEVKSFRFTPRVQRLNELEAMTRVRLDFLDQLAKFWELQGSTLKIPVVERKILDLYALSKIVASKGGFEMVTKEKKWSKVGSRLGYLPGKGTGSLLKSHYERILYPYELFQSGVSLMGVQMPNLDLKEKVEPEVLSTDTQTSPEPGTRMNILPKRTRRVKTQSESGDVSRNTELKKLQIFGAGPKVVGLAMGTKDKEDEVTRRRKVTNRSDAFNMQMRQRKGTLSVNFVDLYVCMFCGRGNNEDKLLLCDGCDDSYHTFCLIPPLPDVPKGDWRCPKCVAEECSKPREAFGFEQAVREYTLQSFGEMADNFKSDYFNMPVHMVPTELVEKEFWRLVSSIEEDVIVEYGADISSKDFGSGFPVKDGRRKILPEEEEYALSGWNLNNMPVLEQSVLAHINVDISGMKVPWLYVGMCFSSFCWHIEDHWSYSINYLHWGEPKTWYGVPSHAAEQLEEVMRELAPELFESQPDLLHQLVTIMNPNVLMEHGVPVYRTNQCAGEFVVTFPRAYHSGFNQGYNFAEAVNFCTADWLPIGRQCVNHYRRLRRHCVFSHEELIFKMAADPECLDVGLAAMVCKELTLMTEEETRLRESVVQMGVLMSEEEVFELVPDDERQCSACRTTCFLSALTCSCNPERLVCLYHPTDLCPCPMQKKCLRYRYPLEDLPSLLYGVKVRAQSYDTWVSRVTEALSANFNHKKDLIELRVMLEDAEDRKYPENDLFRKLRDAVKEAETCASVAQLL
- Kd [1]: 3 µM
- Kd [2]: 4 µM
